Substitutions are numbered along the chain they refer to. Numbers in names are those of the source.
Experiments:
human STEAP-1 [1] = molecular target: T1, human STEAP-1 (human, UniProt Q9UHE8 1-339); experiment: Scatchard analysis on 293.LB50 cells (exogenous STEAP-1)
T1 construct: also called Six Transmembrane Epithelial Antigen of the Prostate
Source text: (§1) IgG Production and Affinity Determination -IgG was purified with Protein G affinity chromatography.
When expressed as an IgG, 120.v24 produced a similar FACS shift to the chimeric 120 antibody at all concentrations tested.

human STEAP-1 [2] = molecular target: T1, human STEAP-1; experiment: Scatchard analysis on LNCaP-BR cells (endogenous STEAP-1)
[3] = molecular target: T2, cynomolgus monkey STEAP-1 (cynomolgus monkey, UniProt Q9UHE8 1-339 (human entry)); experiment: FACS on cells expressing cynomolgus STEAP-1 (panel title CYNO, cell line not named), PE detection
T2 construct: The cells carrying cyno STEAP-1 are not described; also called cyno STEAP-1

mouse STEAP-1 [4] = molecular target: T3, mouse STEAP-1 (mouse, UniProt Q9CWR7 1-339); experiment: FACS on cells expressing mouse STEAP-1 (panel title MOUSE, cell line not named), PE detection; key in Figure 7A: 120
T3 construct: The cells carrying mouse STEAP-1 are not described in the text; also called STEAP-1 from mouse

human STEAP-1 [5] = molecular target: T1, human STEAP-1; experiment: Scatchard analysis on PC3-PS5.4 cells (exogenous STEAP-1)
mouse STEAP-1 [6] = molecular target: T3, mouse STEAP-1; experiment: FACS on cells expressing mouse STEAP-1 (panel title MOUSE, cell line not named), PE detection; key in Figure 7A: 120 chi
human STEAP-1 [7] = molecular target: T1, human STEAP-1; experiment: Scatchard analysis; the sentence names no reference (the preceding sentences compare with chimeric 120 IgG)
Source text: as §1
Although the 120-graft IgG bound specifically to the STEAP-1 expressing cells, the FACS signal observed for the 120-graft IgG was smaller than that observed for the chimeric 120 IgG indicating a loss in binding affinity. Phage displaying the 120-graft Fab also generated a FACS signal that was only observed on STEAP-1 expressing cells. This shift was less than that observed for the chimeric 120 IgG.

human STEAP-1 [8] = molecular target: T1, human STEAP-1; experiment: Scatchard analysis on 293 STEAP-1 NT LB50 cells
human STEAP-1 [9] = molecular target: T1, human STEAP-1; experiment: Scatchard analysis on 293-LB50 and LNCaP.BR cells
Source text: (§2) JgG was purified with Protein G affinity chromatography.

mouse STEAP-1 [10] = molecular target: T3, mouse STEAP-1; experiment: FACS on cells expressing mouse STEAP-1 (panel title MOUSE, cell line not named), PE detection; key in Figure 7A: hu 24-67
human STEAP-1 [11] = molecular target: T1, human STEAP-1; experiment: Scatchard analysis on LNCaP.BR cells (endogenous STEAP-1), Assay 739; displacement plot 25A and Scatchard plot 25B
Source text: as §2

human STEAP-1 [12] = molecular target: T1, human STEAP-1; experiment: Scatchard analysis on 293-LB50 cells (exogenous STEAP-1), average
Source text: as §2

human STEAP-1 [13] = molecular target: T1, human STEAP-1; experiment: Scatchard analysis on 293 cells transiently expressing human Steap1
Source text: as §2

human STEAP-1 [14] = molecular target: T1, human STEAP-1; experiment: Scatchard analysis on LNCaP.BR cells (endogenous STEAP-1), Assay 740; displacement plot 25C and Scatchard plot 25D
Source text: as §2

human STEAP-1 [15] = molecular target: T1, human STEAP-1; experiment: Scatchard analysis on LNCaP-BR cells (endogenous STEAP-1), average
Source text: as §2

human STEAP-1 [16] = molecular target: T1, human STEAP-1; experiment: Scatchard analysis on 293.LB50 cells (exogenous STEAP-1), Assay 738; displacement plot 26C and Scatchard plot 26D
Source text: as §2

human STEAP-1 [17] = molecular target: T1, human STEAP-1; experiment: Scatchard analysis on 293.LB50 cells (exogenous STEAP-1), Assay 737; displacement plot 26A and Scatchard plot 26B
Source text: as §2

[18] = molecular target: T2, cynomolgus monkey STEAP-1; experiment: Scatchard analysis on 293 cells transiently expressing cyno Steap1; side note: Same Affinity for human & cyno
human STEAP-1 [19] = molecular target: T1, human STEAP-1; experiment: Scatchard analysis on LNCaP.BR cells (endogenous STEAP-1), Assay 733; displacement plot 25E and Scatchard plot 25F
Source text: as §2

human STEAP-1 [20] = molecular target: T1, human STEAP-1; experiment: Scatchard analysis on LNCaP.BR cells (endogenous STEAP-1), Assay 734; displacement plot 25G and Scatchard plot 25H
Source text: as §2

human STEAP-1 [21] = molecular target: T1, human STEAP-1; experiment: Scatchard analysis on 293.LB50 cells (exogenous STEAP-1), Assay 736; displacement plot 26G and Scatchard plot 26H
Source text: as §2

human STEAP-1 [22] = molecular target: T1, human STEAP-1; experiment: Scatchard analysis on 293.LB50 cells (exogenous STEAP-1), Assay 735; displacement plot 26E and Scatchard plot 26F
Source text: as §2

T1 sequence (Q9UHE8 other isoform, or with tags, fused parts or gaps): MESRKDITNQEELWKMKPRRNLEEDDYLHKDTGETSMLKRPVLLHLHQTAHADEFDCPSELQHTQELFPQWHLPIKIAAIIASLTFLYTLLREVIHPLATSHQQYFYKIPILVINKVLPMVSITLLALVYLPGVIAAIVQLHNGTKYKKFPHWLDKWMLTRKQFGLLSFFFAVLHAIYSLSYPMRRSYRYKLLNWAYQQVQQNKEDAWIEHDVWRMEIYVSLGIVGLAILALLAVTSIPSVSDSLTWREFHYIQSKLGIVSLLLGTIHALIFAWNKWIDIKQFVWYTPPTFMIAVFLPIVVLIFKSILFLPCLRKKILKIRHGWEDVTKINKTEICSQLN
T3 sequence (Q9CWR7 other isoform, or with tags, fused parts or gaps): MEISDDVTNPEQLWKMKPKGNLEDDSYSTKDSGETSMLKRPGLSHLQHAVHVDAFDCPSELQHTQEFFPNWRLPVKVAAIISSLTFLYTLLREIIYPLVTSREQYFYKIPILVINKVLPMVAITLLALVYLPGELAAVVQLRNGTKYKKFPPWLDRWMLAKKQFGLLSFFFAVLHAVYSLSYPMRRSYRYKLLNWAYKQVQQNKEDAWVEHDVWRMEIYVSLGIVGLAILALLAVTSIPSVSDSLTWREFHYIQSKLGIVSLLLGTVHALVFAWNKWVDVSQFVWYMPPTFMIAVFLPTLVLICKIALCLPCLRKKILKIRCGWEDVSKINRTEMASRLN
T2 sequence (Q9UHE8 other isoform, or with tags, fused parts or gaps): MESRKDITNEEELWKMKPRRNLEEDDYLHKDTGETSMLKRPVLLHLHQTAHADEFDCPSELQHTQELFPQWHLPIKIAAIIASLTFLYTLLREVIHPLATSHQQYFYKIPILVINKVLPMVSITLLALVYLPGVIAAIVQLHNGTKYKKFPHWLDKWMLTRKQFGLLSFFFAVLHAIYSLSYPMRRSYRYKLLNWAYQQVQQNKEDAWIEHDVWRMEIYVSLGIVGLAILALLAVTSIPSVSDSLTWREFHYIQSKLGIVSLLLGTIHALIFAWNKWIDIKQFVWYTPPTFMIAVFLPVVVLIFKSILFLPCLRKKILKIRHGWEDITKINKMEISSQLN

B1: murine anti-STEAP-1 MAb 120.545 (antibody, V domains shown)
VH: DVQVQESGPGLVKPSQSLSLTCTVTGYSITSDYAWNWIRQFPGNKLEWMGYISNSGSTSYNPSLKSRISITRDTSKNQFFLQLISVTTEDTATYYCARERNYDYDDYYYAMDYWGQGTTLTVSA
VL: DIVMSQSPSSLAVSVGEKVTMSCKSSQSLLYRSNQKNYLAWYQQKPGQSPKLLIYWASTRESGVPDRFTGSGSGTDFTLTISSVKAEDLAVYYCQQYYNYPRTFGGGTKVEIK
notes: also called murine 120
B1 showed a Kd (human STEAP-1 [1]) of 4.7 nM, a sites per cell (human STEAP-1 [1]) of 301000 sites per cell and a Kd (human STEAP-1 [2]) of 1.5 nM. For the same binder, the binding result [3] was “binds”, the binding result (mouse STEAP-1 [4]) was “no binding” and the Kd (human STEAP-1 [5]) was 17.5 nM.

B2: 120 chimera (antibody, V domains shown)
VH: B1 VH
VL: B1 VL
notes: If that entry holds a murine constant part, only its variable part applies here; also called chimera 120; chimeric 120 IgG
B2 was tested, and the Kd (human STEAP-1 [1]) was 4.9 nM, the sites per cell (human STEAP-1 [1]) was 253000 sites per cell and the binding result (mouse STEAP-1 [6]) was “no binding”. The Kd (human STEAP-1 [2]) was 0.9 nM, the binding result [3] was “binds” and the Kd (human STEAP-1 [5]) was 9.9 nM.

B3: 120 graft IgG (antibody, V domains shown)
VH: EVQLVESGGGLVQPGGSLRLSCAASGYSITSDYAWNWVRQAPGKGLEWVGYISNSGSTSYNPSLKSRFTISRDNSKNTLYLQMNSLRAEDTAVYYCARERNYDYDDYYYAMDYWGQGTLVTVSS
VL: DIQMTQSPSSLSASVGDRVTITCKSSQSLLYRSNQKNYLAWYQQKPGKAPKLLIYWASTRESGVPSRFSGSGSGTDFTLTISSLQPEDFATYYCQQYYNYPRTFGQGTKVEIKR
notes: Direct CDR graft of murine 120 onto the human kappa I / VH subgroup III consensus, expressed as IgG; also called graft 120
For B3, the “fold loss in binding affinity” value (human STEAP-1 [7]) was ~50 fold and the Kd (human STEAP-1 [8]) was 260 nM.

B4: 120v.78 (antibody, name in Kabat numbering, V domains shown)
VH: B3 VH with L79F
VL: B3 VL
For B4, the Kd (human STEAP-1 [8]) was 36 nM.

B5: humanized anti-STEAP-1 120v.24 (IgG) (antibody, name in Kabat numbering, V domains shown)
VH: B3 VH with A24V
VL: B3 VL
notes: also called humanized 120.v24; humanized version 24
In the case of B5, the “fold binding affinity relative to the SGIV variant” value (human STEAP-1 [9]) is reported as ~1.5 fold, the Kd (human STEAP-1 [1]) is reported as 2.2 nM and the sites per cell (human STEAP-1 [1]) is reported as 264000 sites per cell. For the same binder, the binding result [3] was “binds”, the “fold improvement in Kd over the 120 chimera and the original murine M2-120.545” value (human STEAP-1 [8]) was 2 fold and the binding result (mouse STEAP-1 [10]) was “no binding”.

B6: Original Thio 120V24 (antibody, V domains shown)
VH: B3 VH with A24V
VL: DIQMTQSPSSLSASVGDRVTITCKSSQSLLYRSNQKNYLAWYQQKPGKAPKLLIYWASTRESGVPSRFSGSGSGTDFTLTISSLQPEDFATYYCQQYYNYPRTFGQGTKVEIK
modifications: One engineered free cysteine per chain pair, taken to lie in a constant region and so not in these letters. paragraph 175 calls the antibody a thio-LC variant (V205C Kabat). The site for lot PUR 12813 is not stated at the results.
notes: also called orig thio (PUR 12813); Thio Mab
For B6, the Kd (human STEAP-1 [11]) was 1.1 nM, the Kd (human STEAP-1 [12]) was 1.9 nM and the Kd (human STEAP-1 [13]) was 1.4 nM. For the same binder, the Kd (human STEAP-1 [14]) was 1.7 nM, the Kd (human STEAP-1 [15]) was 1.4 nM and the Kd (human STEAP-1 [16]) was 2 nM. It also gave a Kd (human STEAP-1 [17]) of 1.7 nM and a Kd [18] of 1.1 nM.

B7: anti-STEAP-1 antibody SGIV (antibody, name in Kabat numbering, V domains shown)
VH: B3 VH with A24V
VL: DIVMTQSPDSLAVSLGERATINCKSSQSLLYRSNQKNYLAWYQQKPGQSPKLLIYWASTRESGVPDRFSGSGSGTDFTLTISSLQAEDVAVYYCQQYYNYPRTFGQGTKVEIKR
notes: Described as a revised light chain variant of the 120.v24 antibody, expressed as IgG; also called Simmons IV; SGIV variant
Binder B7 has a Kd (human STEAP-1 [19]) of 2.3 nM, a Kd (human STEAP-1 [20]) of 1.9 nM and a Kd (human STEAP-1 [12]) of 2.8 nM. It also gave a Kd (human STEAP-1 [15]) of 2.1 nM, a Kd (human STEAP-1 [21]) of 2.8 nM and a Kd (human STEAP-1 [22]) of 2.7 nM.

Source: patent publication US20090280056A1 (Genentech, published 2009)
